Laboratory results: patent publication US20070258982A1 (Pfizer, published 2007)
Substitutions are numbered along the chain they refer to.

T1: human IL-22 (human, UniProt Q9GZX6 34-179)
T1 sequence: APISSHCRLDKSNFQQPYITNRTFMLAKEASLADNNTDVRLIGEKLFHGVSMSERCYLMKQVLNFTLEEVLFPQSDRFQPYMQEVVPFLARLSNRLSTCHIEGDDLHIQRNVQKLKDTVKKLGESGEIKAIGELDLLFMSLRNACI

T2: IL-26 (human, UniProt Q9NPH9)
T2 construct: also called human IL-26
T2 sequence (cytokine, looked up): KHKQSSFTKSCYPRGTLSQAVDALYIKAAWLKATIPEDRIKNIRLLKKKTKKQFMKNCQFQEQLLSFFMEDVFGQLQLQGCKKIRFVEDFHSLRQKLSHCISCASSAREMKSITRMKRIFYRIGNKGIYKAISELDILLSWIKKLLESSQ

B1: 097D09 scFv (non-germlined) (scFv)
scFv: EVQLVESGGGLVTPGGSLRLSCAASGFTFSDYYMSWVRQAPGRGLEWVSAISGSGGSTYYADSVKGRITISRDNAKNSLYLQMSSLRSEDTAVYYCARGLWVWDPLDYWGRGTLVTVSSGGGGSGGGGSGGGGSDIQMTQSPSTLSASIGDRVTITCRASEGIYHWLAWYQQKPGKAPKLLIYKASSLASGAPSRFSGSGFGTDFTLTISSLQPDDFATYYCQQYSEFAWTFGGGTKLEIKRAAAH
B2: 368D04 scFv (non-germlined) (scFv)
scFv: EVQLVESGGGVVRPGGSLRLSCAASGFTFDDYGMNWVRQAPGKGLEWVSGVNWNGGTRDYAASVKGRFTISRDNAKNSLYLQMNSLRAEDTALYYCARGWYSGAAWNMGYWGRGTLVTVSSGGGGSGGGGSGGSGGGSGGGGGGSGGGGSAQAVLTQPSSVSGSPGQSITISCTGASGDVGAYNFVSWYQQHPGKTPKLIIYDVNKRPSGVSNRFSGSKSGNTASLTISGLQAEDESDYYCASLVSDFSVVFGGGTKVTVLGAAAH
B3: 087B03 IgG (germlined) (antibody, V domains shown)
VH: EVQLVESGGGVVRPGGSLRLSCAASGFTFDDYGMNWVRQAPGKGLEWVSGVNWNGGTRDYAASVKGRFTISRDNAKNSLYLQMNSLRAEDTALYHCARGWYSGAAWNMGYWGRGTLVTVSS
VL: QAALTQPASVSGSPGQSITISCTGASGDVGAYNFVSWYQQHPGKAPKLIIYDVNKRPSGVSNRFSGSKSGNTASLTISGLQAEDEADYYCSSYTSTFSVVFGGGTKLTVLG
B4: 166G05 scFv (non-germlined) (scFv)
scFv: EVQLVQSGAEVKKPGASVKVSCQASGYTFSDYYIHWVRQTPGQGFEWMGWVNPDTGGTRYAQKFQGWVTMTRDMSNTTAYMELPRLRDDDTAVYYCARDLTGFDPFDIWGQGTLVTVSSGGGGSGGGGSGGGGSAQSVLTQPPSVSVAPGKTATITCGGNNFRNKRVHWYQQRPGQAPVLVIYYDSDRPSGIPERFSGSRSGNTATLTISRVEAGDEADFYCQVWDFLTDSGSFGGGTKLTVLGAAAH
B5: 166B06 scFv (non-germlined) (scFv)
scFv: B4 scFv with G123S, F227L, L228F, T229N, S231N, S233V
B6: 166B06 IgG (non-germlined) (antibody, V domains shown)
VH: EVQLVQSGAEVKKPGASVKVSCQASGYTFSDYYIHWVRQTPGQGFEWMGWVNPDTGGTRYAQKFQGWVTMTRDMSNTTAYMELPRLRDDDTAVYYCARDLTGFDPFDIWGQGTLVTVSS
VL: QSVLTQPPSVSVAPGKTATITCGGNNFRNKRVHWYQQRPGQAPVLVIYYDSDRPSGIPERFSGSRSGNTATLTISRVEAGDEADFYCQVWDLFNDNGVFGGGTKLTVLG
B7: 166G05 IgG (non-germlined) (antibody, V domains shown)
VH: B6 VH
VL: B6 VL with L92F, F93L, N94T, N96S, V98S
B8: 375G06 scFv (non-germlined) (scFv)
scFv: EVQLVQSGAEVKKPGASVKVSCQASGYTFSDYYIHWVRQTPGQGFEWMGWVNPDTGGTRYAQKFQGWVTMTRDMSNTTAYMELPRLRDDDTAVYYCARDLTGYDYYDRWGQGTLVTVSSGGGGSGGGGSGGGGGGSGGGGGGSGGGGSAQSVLTQPPSMSVAPGKTATITCGGNNFRNKRVHWYQQRPGQAPVLVIYYDSDRPSGIPERFSGSRSGNTATLTISRVEAGDEADFYCQVWDFLADEAMFGGGTKLTVLGAAAH
B9: 376B10 scFv (non-germlined) (scFv)
scFv: EVQLVQSGAEVKKPGASVKVSCQASGYTFSDYYIHWVRQTPGQGFEWMGWVNPDTGGTRYAQKFQGWVTMTRDMSNTTAYMELPGLRDDDTAVYYCARDLTGYDQYTAWGQGTLVTVSSGGGGSGGGGSGGGGSAQSVLTQPPSVSVAPGKTATITCGGNNFRNKRVHWYQQRPGQAPVLVIYYDSDRPSGIPERFSGSRSGNTATLTISRVEAGDEADFYCSTFDPFTDRPLFGGGTKLTVLGAAAH
B10: 354A08 scFv (non-germlined) (scFv)
scFv: QVQLVQSGAEKKPGASVKVSCKASGYTFTDYYMHWVRQAPGQGLEWVGWINPYTGGAFYAQKFRGRVTMTRDTSINTAYMELSRLGSDDTAVYYCAREPERFGDSTGQVWGRGTMVTVSSGGGGSGGGGSGGSRSAQAVLTQPSSVSGAPRQRVTISCTGSSSNIGAGYGVHWYQQLPGTAPKLLIYGNSNRPSGVPDRFSGSKSGTSASLAITGLQAEDEADYYCYHWDKEQSGYVFGTGTQLTVLSA
B11: 355B06 scFv (non-germlined) (scFv)
scFv: EVQLVQSGAEVKKPGASVKVSCQASGYTFTDYYMHWVRQAPGQGLEWVGWINPYTGSAFYAQKFRGRATMTRNTSINTAYMELSRLGSDDTAVYYCAREPEKFGESSGQLWGRGTMVTISSGGGGSGGGGSGGSGSAQAVLTQPSSVSGAPGQRVTISCTGSSSNIGPGYGVHWYQQLPGTAPKLLIYGDSNRPSGVPDRFSGSKSGTSASLAITGLQAEDEADYYCQSYDSGLSGYVFGTGTQLTVLSA
B12: 355E04 scFv (non-germlined) (scFv)
scFv: QVQLVQSGAEVKKPGASVKVSCKASGYTFTHYYMHWVRQAPGQGLEWVGWINPYTGGAFYAQKFQGRVTMTRDTSINTAYMELSRLGSDDTAVYYCAREPEKFDSPNAEIWGRGTMVTISSEGGGSGGGGSGGSGSAQAVLTQPSSVSGAPGQRVTISCTGSSSNIGAGYGVHWYQQLPGTAPKLLIYGNSNRPSGVPDRFSGSKSGTSASLAITGLQAEDEADYYCQSYDSSLSGYVFGTGTQLTVLSA
B13: 356A11 scFv (non-germlined) (scFv)
scFv: QVQLVQSGAEVKKPGASVKVSCKASGYTFTNYYMHWVRQAPGQGLEWVGWINPYTGSAFYAQKFRGRVTMTRDTSINTAYMELSRLGSDDTAVYYCAREPEKFDSDDSDVWGRGTMVTVSGGGGSSGGGGSGGSGSAQAVLTPPSVSGAPGQRVTISCTGSSSNIGAGYGVHWYQQLPGTAPKLIIYGDSSRPSGVPDRFSGSKSGTSASLAITGLQAEDEADYYCQSYDNSLSGYVFGTGTQLTVLSA
B14: 062G05 scFv (non-germlined) (scFv)
scFv: QVQLVESGAEVKKPGASVKVSCKASGYTFTSYGISWVRQAPGQGLEWMGWISAYTGNTNYAQKFQGRVTMTTDTSTSTAYMELRSLRSDDTAVYYCARDRGYYDAFDIWGQGTLVTVSSGGGGSGGGGSGGGGSDIQMTQSPSTLSASIGDRVTITCRASEGIYHWLAWYQQKPGKAPKLLIYKASSLASGAPSRFSGSGFGTDFTLTISSLQPDDFATYYCQQMGEWKAAFGGGTKLEIKRAAAH
B15: 062A09 scFv (non-germlined) (scFv)
scFv: B14 scFv with I51V, S85G, F106Y, W228Y, K229N, A231T, F232I
B16: 062A09 IgG (non-germlined) (antibody, V domains shown)
VH: QVQLVESGAEVKKPGASVKVSCKASGYTFTSYGISWVRQAPGQGLEWMGWVSAYTGNTNYAQKFQGRVTMTTDTSTSTAYMELRGLRSDDTAVYYCARDRGYYDAFDIWGQGTLVTVSS
VL: DIQMTQSPSTLSASIGDRVTITCRASEGIYHWLAWYQQKPGKAPKLLIYKASSLASGAPSRFSGSGFGTDFTLTISSLQPDDFATYYCQQMGEYNATIGGGTKLEIKR
B17: 087B03 scFv (non-germlined) (scFv)
scFv: EVQLVESGGGVVRPGGSLRLSCAASGFTFDDYGMNWVRQAPGKGLEWVSGVNWNGGTRDYAASVKGRFTISRDNAKNSLYLQMNSLRAEDTALYYCARGWYSGAAWNMGYWGRGTLVTVSSGGGGSGGGGSGGGGSAQAVLTQPSSVSGSPGQSITISCTGASGDVGAYNFVSWYQQHPGKTPKLIIYDVNKRPSGVSNRFSGSKSSNTASLTISGLQAEDESDYYCSSYTSTFSVVFGGGTKVTVLGAAAH
B18: 367D04 scFv (non-germlined) (scFv)
scFv: EVQLVESGGGVVRPGGSLRLSCAASGFTFDDYGMNWVRQAPGKGLEWVSGVNWNGGTRDYAASVKGRFTISRDNAKNSLYLQMNSLRAEDTALYYCARGWYSGSPWSLGHWGRGTLVTVSSGGGGSGGGGSGGSGGGSGGSGGGSSGGGSGGGGSAQAVLTQPSSVSGSPGQSVTISCTGASGDVGAYNFVSWYQQHPGKTPKLIIYDVNKRPSGVSNRFSGSKSGNTASLTISRLQAEDESDYYCSSYTSRYTTEFGGGTKVTVLGAAAH
B19: 166B06 IgG (germlined) (antibody, V domains shown)
VH: B6 VH with E1Q, Q23K, T40A, F45L, W67R, N76I, T77S, P84S, D88S
VL: B6 VL with Q1S, T19R, R38K, F85Y

Key:
human IL-22 = target: T1, human IL-22; assay: cell-based or functional assay
IL-26 = target: T2, IL-26; assay: ELISA: plate coated with 1 µg/ml antigen, IgG added at 1 µg/ml, HRP goat anti-human IgG, A450
Experimental: Cross species reactivity of germlined and non-germlined optimized antibodies were determined as follows: ELISA plates (Costar, Cat. #3590) were coated overnight with 1 μg/ml of rat, mouse, or human IL-22 or human IL-26 in PBS buffer. Plates were washed with PBST buffer (0.05% Tween20 in PBS) 3 times, then blocked with 1% BSA (Sigma A8918)/PBST for 1 hr at RT. Antibodies were added at 1 μg/ml, incubated 1 hr at 25° C. […] The plates were incubated for 1 hour at 25° C., then washed with PBST, and developed with TMB (KPL, Cat. #50-76-04). Reaction was stopped with 0.18 M H₂SO₄ Plates were read at OD 450 nm.

BSA = target: T3, BSA (bovine, UniProt P02769); assay: ELISA: plate coated with antigen, IgG added at 1 µg/ml, HRP goat anti-human IgG, A450
T3 construct: also called bovine serum albumin
T3 sequence (P02769 25-607 limits assumed): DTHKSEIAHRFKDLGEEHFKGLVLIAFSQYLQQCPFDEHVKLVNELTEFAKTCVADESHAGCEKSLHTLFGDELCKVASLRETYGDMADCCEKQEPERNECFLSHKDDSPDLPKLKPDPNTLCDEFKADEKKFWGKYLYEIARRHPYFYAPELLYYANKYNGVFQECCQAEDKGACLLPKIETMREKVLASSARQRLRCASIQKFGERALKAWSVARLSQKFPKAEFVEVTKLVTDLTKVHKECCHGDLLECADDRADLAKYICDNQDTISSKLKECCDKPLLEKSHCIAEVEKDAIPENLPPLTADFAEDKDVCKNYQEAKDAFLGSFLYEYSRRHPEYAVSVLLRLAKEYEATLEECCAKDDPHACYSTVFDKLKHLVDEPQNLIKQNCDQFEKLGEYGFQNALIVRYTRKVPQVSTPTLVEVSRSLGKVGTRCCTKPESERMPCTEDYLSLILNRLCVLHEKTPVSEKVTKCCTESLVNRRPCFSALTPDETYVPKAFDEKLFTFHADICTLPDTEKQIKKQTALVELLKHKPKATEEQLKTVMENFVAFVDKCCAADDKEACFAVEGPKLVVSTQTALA

Binder | IC50 of scFv (pM) in BaF3-IL-22 proliferation assay (human IL-22) [pM] | also measured
B1 | 298 | 
B2 | 186 | 
B3 |  | binding result (IL-26): no binding (tested: 1 µg/ml); binding result (BSA): no binding (tested: 1 µg/ml)
B4 | 204 | 
B5 | 460 | 
B6 |  | IC50 of IgG (pM) in BaF3-IL-22 proliferation assay (human IL-22): 71 pM
B7 |  | IC50 of IgG (pM) in BaF3-IL-22 proliferation assay (human IL-22): 97 pM
B8 | 118 | 
B9 | 104 | 
B10 | 219 | 
B11 | 183 | 
B12 | 192 | 
B13 | 124 | 
B14 | 182 | 
B15 | 267 | 
B16 |  | IC50 of IgG (pM) in BaF3-IL-22 proliferation assay (human IL-22): 83 pM
B17 | 212 | 
B18 | 160 | 
B19 |  | binding result (IL-26): no binding (tested: 1 µg/ml); binding result (BSA): no binding (tested: 1 µg/ml)
